# Source: patent US20250197490A1, “ANTI-CORTICOTROPIN-RELEASING HORMONE ANTIBODIES AND USE IN CONGENITAL ADRENAL HYPERPLASIA” (HBM ALPHA THERAPEUTICS, INC., priority 2021, published 2025)
# Tests used:
# [1] = molecular target: biotinylated CRH (human and mouse); experiment: Octet in-tandem competition on captured CRH; row = 1st mAb (control hIgG1); competitor (2nd mAb) PR005660
# [2] = molecular target: biotinylated CRH (human and mouse); experiment: Octet in-tandem competition on captured CRH; row = 1st mAb (control hIgG1); competitor (2nd mAb) PR006669
# [3] = molecular target: biotinylated CRH (human and mouse); experiment: Octet in-tandem competition on captured CRH; row = 1st mAb (control hIgG1); competitor (2nd mAb) PR301777
# [4] = molecular target: biotinylated CRH (human and mouse); experiment: Octet in-tandem competition on captured CRH; row = 1st mAb (control hIgG1); competitor (2nd mAb) PR302334
# [5] = molecular target: biotinylated CRH (human and mouse); experiment: Octet in-tandem competition on captured CRH; row = 1st mAb (control hIgG1); competitor (2nd mAb) PR303394
# [6] = molecular target: biotinylated CRH (human and mouse); experiment: Octet in-tandem competition on captured CRH; row = 1st mAb (control hIgG1); competitor (2nd mAb) PR302309-8
# [7] = molecular target: biotinylated CRH (human and mouse); experiment: Octet in-tandem competition on captured CRH; row = 1st mAb (control hIgG1); competitor (2nd mAb) PR302341-34
# Chain of biotinylated CRH (human and mouse) (P01143 145-185): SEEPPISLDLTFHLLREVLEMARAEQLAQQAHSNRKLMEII
substance,measurement,setting,value
unrelated human IgG1 (negative control) (antibody),% Inhibition,[1],12%
same,% Inhibition,[2],9%
same,% Inhibition,[3],9%
same,% Inhibition,[4],8%
same,% Inhibition,[5],10%
same,% Inhibition,[6],15%
same,% Inhibition,[7],12%
